According to PMC6479699, “Structural and Functional Characterization of the Human Thymidylate Synthase (hTS) Interface Variant R175C, New Perspectives for the Development of hTS Inhibitors” (Molecules, 2019):

Molecular target: the molecule itself
Assay: SEC; HiLoad 16/600 Superdex 75pg column, last purification step; sample dialysed in buffer A (50 mM Tris pH 6.9, 300 mM KCl) beforehand

B1: His6-tag human thymidylate synthase variant R175C (enzyme, UniProt P04818 1-313, looked up)
chain: MPVAGSELPRRPLPPAAQERDAEPRPPHGELQYLGQIQHILRCGVRKDDRTGTGTLSVFGMQARYSLRDEFPLLTTKRVFWKGVLEELLWFIKGSTNAKELSSKGVKIWDANGSRDFLDSLGFSTREEGDLGPVYGFQWRHFGAEYRDMESDYSGQGVDQLQRVIDTIKTNPDDCRIIMCAWNPRDLPLMALPPCHALCQFYVVNSELSCQLYQRSGDMGLGVPFNIASYALLTYMIAHITGLKPGDFIHTLGDAHIYLNHIEPLKIQLQREPRPFPKLRILRKVEKIDDFKAEDFQIEGYNPHPTIKMEMAV
modifications: Cys195 oxidized to S-oxy-cysteine (CSX195) in all subunits of the crystal structure
notes: human thymidylate synthase (hTS, EC 2.1.1.45); Arg175 replaced by cysteine; In the crystal the chains were traced apart from the first 22-23 N-terminal residues and the C-terminal valine; also called HT-hTS R175C; hTS R175C; not shown: His6, N-terminal, kept
stoichiometry N: 2
